Assay results reported in patent publication US11466080B2, “Methods of treating cancer using anti-LRP1 polyclonal antibodies” (Children's Medical Center Corporation, priority 2017, dated 2022).
Read-outs that look alike come from different tables or passages of the source. Blank lines part the entries; values can stand above or below the molecule they belong to.

How the values were obtained:
PRSS2 = PRSS2 (Homo sapiens, UniProt P07478); experiment: Co-immunoprecipitation of LRP1 peptides with PRSS2; format: binding
Sequence of PRSS2 (P07478 16-247 limits assumed): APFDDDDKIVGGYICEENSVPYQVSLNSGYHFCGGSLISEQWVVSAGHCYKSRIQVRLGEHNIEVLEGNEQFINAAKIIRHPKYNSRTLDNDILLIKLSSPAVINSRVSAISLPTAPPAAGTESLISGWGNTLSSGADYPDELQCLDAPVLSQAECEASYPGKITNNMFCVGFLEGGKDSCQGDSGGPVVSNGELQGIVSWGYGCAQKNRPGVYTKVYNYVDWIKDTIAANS
Protocol: (§1) FIGS. 16A-16B. Co-immunoprecipitation of LRP1 peptides with PSAP (FIG. 16A) or PRSS2 (FIG. 16B).
(§2) To map the binding sites on LRP1 that binds to prosaposin (PSAP) and/or PRSS2, peptides derived from binding domain I of LRP1 (SEQ ID NOs: 3 and 7-18) were tested for their ability to co-immunoprecipitate with PSAP or PRSS2.

prosaposin (PSAP) = biological target: T1, prosaposin (PSAP) (Homo sapiens, UniProt P07602); experiment: Co-immunoprecipitation of LRP1 peptides with PSAP; format: binding
T1 sequence (P07602 60-524): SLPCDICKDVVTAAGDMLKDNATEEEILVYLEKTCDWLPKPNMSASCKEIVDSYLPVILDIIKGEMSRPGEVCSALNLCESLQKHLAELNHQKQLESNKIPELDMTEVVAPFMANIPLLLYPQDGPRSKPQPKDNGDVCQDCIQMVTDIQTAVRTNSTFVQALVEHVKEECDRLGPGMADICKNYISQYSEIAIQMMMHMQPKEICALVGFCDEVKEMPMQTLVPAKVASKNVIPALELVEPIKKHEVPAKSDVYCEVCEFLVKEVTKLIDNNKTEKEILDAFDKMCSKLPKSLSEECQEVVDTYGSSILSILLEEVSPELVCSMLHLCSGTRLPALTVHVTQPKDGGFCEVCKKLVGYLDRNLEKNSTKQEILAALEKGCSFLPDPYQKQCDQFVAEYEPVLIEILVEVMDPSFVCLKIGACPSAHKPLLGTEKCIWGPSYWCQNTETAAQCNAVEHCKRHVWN
Protocol: as §1, §2

Tsp-1 [1] = experiment: Western blot of Tsp-1 in prostate fibroblasts treated with PC3-conditioned media; format: cell-based
Source text: (§3) FIGS. 6A-6B. Western blot analysis of: (FIG. 6A) Tsp-1 and β-actin expression in prostate fibroblasts that were untreated (−) or treated with conditioned media from PC3 cells alone or in combination with RAP, and (FIG. 6B) Tsp-1, p53 and β-actin expression in prostate fibroblasts that were untreated (−) or treated with conditioned media from PC3 cells alone or in combination with the PKC inhibitor Gδ 6983 (PKCi).
(§4) Thus, in order to determine how prosaposin was able to stimulate the expression of Tsp-1 and p53 in tumor-associated fibroblasts, prostate fibroblasts were treated with PC3-conditioned media in the presence and absence of Receptor Associate Protein (RAP), a competitive inhibitor or LRP1 binding. […] To determine whether prosaposin-mediated stimulation of Tsp-1 utilized this pathway, fibroblasts were treated with CM from PC3 cells in the presence and absence of the PKC inhibitor Gö 6983. […] Thus, it is believed that Prosaposin functions via binding to LRP1.

p53 = experiment: Western blot of p53 in prostate fibroblasts treated with PC3-conditioned media; format: cell-based
Source text: as §3, §4

Tsp-1 [2] = experiment: Western blot of Tsp-1 in lung fibroblasts treated with psap peptide; format: cell-based; conditions: peptide with 25 or 50 μg rhRAP or with Y27632
Protocol: FIGS. 8A-8B. Western blot analysis of Tsp-1 and β-actin expression in lung fibroblasts, which were (FIG. 8A) untreated (−) or treated with psap peptide alone or in combination with 25 or 50 μg of rhRAP, and (FIG. 8B) untreated (−) or treated with psap peptide alone or with Y27632.
In order to delineate the pathway leading from LRP1 to Tsp-1 stimulation by prosaposin, two pathways that have been reported to be stimulated by LRP1 under different conditions were chosen to be examined: Rho and Rac.

Tsp-1 [3] = experiment: Western blot of Tsp-1 in lung fibroblasts treated with LN4 conditioned media; format: cell-based; conditions: WI38 cells, LN4 CM with Rac1 inhibitor
Source text: FIG. 11. Western blot analysis of Tsp-1 and β-actin expression in lung fibroblasts that were untreated (−) or treated with LN4 CM alone or in combination with STI.
FIG. 12. Western blot analysis of Tsp-1 and β-actin expression in lung fibroblasts that is were untreated (−) or treated with LN4 CM alone or in combination with Rac1 inhibitor.
Attention was then turned to the mechanism by which PC3M-LN4 cells repress Tsp-1 in the tumor microenvironment. In doing so, LN4 conditioned media (CM) was fractionated over a Cu^2+/heparin sepharose column with increasing concentrations of NaCl. The eluted fractions were used to treat lung fibroblasts and Tsp-1 induction was analyzed by western blot. […] By analyzing the protein content of the eluted fractions by tandem liquid chromatography/mass spectrometry (LC/MS), a protein was identified that was present in the active fractions of LN4 CM, but not present in the adjacent fractions or the fractions eluted with the same NaCl concentrations from PC3 CM. The identified protein was the serine protease PRSS2. […] Finally, the signaling pathway emanating from LRP1 that was mediating the PRSS2-induced repression of Tsp-1 was sought to be delineated. […]

binding to PRSS2 (co-immunoprecipitation) (PRSS2; listed as peptide 13): bind to both PRSS2 and PSAP
binding to PSAP (co-immunoprecipitation) (prosaposin (PSAP); listed as peptide 13): bind to both PRSS2 and PSAP
Molecule: Peptide 13: amino acids 151-172 of LRP1, SEQ ID NO: 3, FICGCVEGYLLQPDNRSCKAKN

binding to PRSS2 (co-immunoprecipitation) (PRSS2; listed as peptide 12): bind to both PRSS2 and PSAP
binding to PSAP (co-immunoprecipitation) (prosaposin (PSAP); listed as peptide 12): bind to both PRSS2 and PSAP
Molecule: Peptide 12: amino acids 140-164 of LRP1, SEQ ID NO: 18, YGTCSQLCTNTDGSFICGCVEGYLL
binding to PRSS2 (co-immunoprecipitation) (PRSS2): Peptide 12 (amino acids 140-164 of LRP1, binds to

Molecule: COc1ccc2c(c1)c(C1=C(c3c[nH]c4ccccc34)C(=O)NC1=O)cn2CCCN(C)C [Gö 6983, reference compound]
stimulation of Tsp-1 by PC3-conditioned media in the presence of the substance (Tsp-1 [1]): abolished the stimulation of Tsp-1 and p53
stimulation of p53 by PC3-conditioned media in the presence of the substance (p53): abolished the stimulation of Tsp-1 and p53

Molecule: C[C@@H](N)[C@H]1CC[C@H](C(=O)Nc2ccncc2)CC1 [Peptide Y27632, Y27632, reference compound]
effect of co-treatment on stimulation of Tsp-1 by the peptide (Tsp-1 [2]): completely abrogated

Molecule: CCN(CC)CCCC(C)Nc1nc(C)cc(Nc2ccc3nc(C)cc(N)c3c2)n1 (racemic) [Rac1 inhibitor]
Tsp-1 levels under LN4 CM in presence of the substance (Tsp-1 [3]): restored to basal levels

B1: RAP: Receptor Associate Protein (RAP), a competitive inhibitor or LRP1 binding (protein, UniProt P30533 35-357, looked up)
Alpha-2-macroglobulin …: YSREKNQPKPSPKRESGEEFRMEKLNQLWEKAQRLHLPPVRLAELHADLKIQERDELAWKKLKLDGLDEDGEKEARLIRNLNVILAKYGLDGKKDARQVTSNSLSGTQEDGLDDPRLEKLWHKAKTSGKFSGEELDKLWREFLHHKEKVHEYNVLLETLSRTEEIHENVISPSDLSDIKGSVLHSRHTELKEKLRSINQGLDRLRRVSHQGYSTEAEFEEPRVIDLWDLAQSANLTDKELEAFREELKHFEAKIEKHNHYQKQLEIAHEKLRHAESVGDGERVSRSREKHALLEGRTKELGYTVKKHLQDLSGRISRARHNEL
stimulation of Tsp-1 by PC3-conditioned media in the presence of the substance (Tsp-1 [1]): no longer stimulated Tsp-1
effect of co-treatment on stimulation of Tsp-1 by the peptide (Tsp-1 [2]): blocked the stimulation of Tsp-1 in a dose-dependent fashion
